The data set has as its target T1, CaPif1 (Candida albicans, UniProt Q59RQ0 1-906).
T1 sequence: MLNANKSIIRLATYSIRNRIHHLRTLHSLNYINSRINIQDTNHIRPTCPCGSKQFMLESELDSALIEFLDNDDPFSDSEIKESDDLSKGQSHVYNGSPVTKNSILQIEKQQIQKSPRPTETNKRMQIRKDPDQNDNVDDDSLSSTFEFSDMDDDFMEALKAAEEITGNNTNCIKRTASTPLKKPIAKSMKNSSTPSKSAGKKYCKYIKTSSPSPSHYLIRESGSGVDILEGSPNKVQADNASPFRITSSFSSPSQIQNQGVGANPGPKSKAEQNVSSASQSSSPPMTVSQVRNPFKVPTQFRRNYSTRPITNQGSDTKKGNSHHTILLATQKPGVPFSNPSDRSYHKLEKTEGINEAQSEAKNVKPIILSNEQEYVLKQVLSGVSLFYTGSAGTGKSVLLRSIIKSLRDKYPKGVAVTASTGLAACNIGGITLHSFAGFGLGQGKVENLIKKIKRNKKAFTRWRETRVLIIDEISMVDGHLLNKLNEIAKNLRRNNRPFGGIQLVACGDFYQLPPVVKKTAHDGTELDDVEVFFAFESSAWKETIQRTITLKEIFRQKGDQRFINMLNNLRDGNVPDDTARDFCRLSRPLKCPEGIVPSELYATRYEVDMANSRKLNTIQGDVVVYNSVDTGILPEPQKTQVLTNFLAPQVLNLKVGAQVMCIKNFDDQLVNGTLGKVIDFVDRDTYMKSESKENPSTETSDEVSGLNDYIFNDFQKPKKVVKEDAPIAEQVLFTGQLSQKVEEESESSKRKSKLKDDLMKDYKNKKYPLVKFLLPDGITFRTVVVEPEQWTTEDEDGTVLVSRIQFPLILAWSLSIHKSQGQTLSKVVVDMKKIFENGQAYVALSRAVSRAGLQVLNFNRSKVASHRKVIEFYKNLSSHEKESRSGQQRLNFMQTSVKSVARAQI
Nature of the data set: EMSA; 1.5 mM Mg2+, no ATP; CaPif1 0-3000 nM; 25 mM Tris-HCl pH 7.5, 50 mM NaCl, 1.5 mM MgCl2, 1 mM DTT, 25 C; EMSA 10 nM DNA, 5 min, 6% native PAGE; FP 5 nM DNA, 10 min. To be noted: protein: recombinant, tags: none (N-terminal His-SUMO tag removed). A general note: A gel shift assay detects complexes by their altered migration in electrophoresis.

As to CCATGCAGCTGTCAGTCCATTGTCATGCTAGGCCTACTGC (ssDNA) [S40], for the setting “label: 3'-FAM, single strand, 40 nt”, the binding result was “binds”.

B1: OhS22D21 (dsDNA)
DNA 1: CTGTAGGAATGTGAAATAAAAACGATGTTTTATTTACATTGTA
DNA 2: TACAATGTAAATAAAACATCG
As for B1, the binding result (label: 3'-FAM on strand 1, 5' overhang 22 nt, 21 bp duplex) is “binds”.

Values taken from paper PMC8815974, “Mechanistic Insight Into Cadmium- and Zinc-Induced Inactivation of the Candida albicans Pif1 Helicase”.
